Publication PMC6436938 (Molecular Cell, 2019)

B1: His-tagged H1.0 C-terminal domain (H1C, aas 96–194) (domain or fragment, human, UniProt P07305 96-194, looked up)
chain: AKSDEPKKSVAFKKTKKEIKKVATPKKASKPKKAASKAPTKKPKATPVKKAKKKLAATPKKAKKPKTVKAKPVKASKPKKAKPVKPKAKSSAKRAGKKK
B2: Nsp1_FG (497–608), construct containing five FG repeats from nucleoporin Nsp1 (domain or fragment)
chain: not shown

Target: importin β (Impβ) (human, UniProt Q14974 1-876)
Experiment: pull-down

importin β (Impβ), sequence (Q14974 whole entry): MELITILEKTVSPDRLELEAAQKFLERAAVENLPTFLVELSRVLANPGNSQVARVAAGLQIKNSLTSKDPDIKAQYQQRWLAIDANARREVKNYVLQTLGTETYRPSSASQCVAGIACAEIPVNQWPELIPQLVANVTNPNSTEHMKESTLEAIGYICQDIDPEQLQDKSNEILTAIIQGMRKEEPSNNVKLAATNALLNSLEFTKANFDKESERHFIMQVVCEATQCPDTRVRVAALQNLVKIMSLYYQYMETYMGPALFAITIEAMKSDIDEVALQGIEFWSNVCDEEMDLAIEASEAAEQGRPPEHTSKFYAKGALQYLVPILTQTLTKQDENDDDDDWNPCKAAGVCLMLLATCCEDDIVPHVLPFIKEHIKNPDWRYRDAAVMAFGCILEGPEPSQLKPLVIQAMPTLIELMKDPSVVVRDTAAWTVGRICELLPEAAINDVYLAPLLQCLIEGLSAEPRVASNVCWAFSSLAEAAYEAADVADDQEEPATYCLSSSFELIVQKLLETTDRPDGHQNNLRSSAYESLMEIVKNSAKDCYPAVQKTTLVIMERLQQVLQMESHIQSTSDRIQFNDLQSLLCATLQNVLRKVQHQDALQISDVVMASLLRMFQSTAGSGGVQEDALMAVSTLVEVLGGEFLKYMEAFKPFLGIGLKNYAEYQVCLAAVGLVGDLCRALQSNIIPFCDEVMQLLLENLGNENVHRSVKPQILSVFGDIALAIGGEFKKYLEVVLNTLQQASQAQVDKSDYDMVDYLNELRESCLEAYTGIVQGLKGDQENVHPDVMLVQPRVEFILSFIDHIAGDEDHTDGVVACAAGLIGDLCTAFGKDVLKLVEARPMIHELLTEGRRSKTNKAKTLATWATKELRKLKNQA

Binder	binding result
B1	binds
B2	binds
